# Reference: publication PMC8191316, “Structural basis for CD97 recognition of the decay-accelerating factor CD55 suggests mechanosensitive activation of adhesion GPCRs” (The Journal of Biological Chemistry, 2021)
# B1: CD97 EGF_(1,2,5) fragment, WT, without His-tag (SPR construct with TEV site) [human] / CD55 SCR1–4 domains (35–285), His-tagged [human] (parent)
# chain 1: QDSRGCARWCPQNSSCVNATACRCNPGFSSFSEIITTPTETCDDINECATPSKVSCGKFSDCWNTEGSYDCVCSPGYEPVSGAKTFKNESENTCQDVDECSSGQHQCDSSTVCFNTVGSYSCRCRPGWKPRHGIPNNQKDTVCED
# chain 2: DCGLPPDVPNAQPALEGRTSFPEDTVITYKCEESFVKIPGEKDSVICLKGSQWSDIEEFCNRSCEVPTRLNSASLKQPYITQNYFPVGTVVEYECRPGYRREPSLSPKLTCLQNLKWSTAVEFCKKKSCPNPGEIRNGQIDVPGGILFGATISFSCNTGYKLFGSTSSFCLISGSSVQWSDPLPECREIYCPAPPQIDNGIIQGERDHYGYRQSVTYACNKGFTMIGEHSIYCTVNNDEGEWSGPPPECRG
# Variants of: B1
# Assay: SPR
# Settings: with CD55 SCR1–4 domains (35–285), His-tagged CD55 immobilized on NTA chip, CD97(D63L) titrated at 0.2, 0.5, 1, 5, 10, 20 µM
row,koff,Variant
1,0.968 10^-3 s-1,chain 1 D43L

# Same assay, conditions: with CD55 SCR1–4 domains (35–285), His-tagged CD55 immobilized on NTA chip, CD97(D63L) titrated at 0.2, 0.5, 1, 5, 10, 20 µM, parent: 546
row,kon [M⁻¹ s⁻¹],Variant
1,11.2,chain 1 D43L

# Same assay, conditions: with CD55 SCR1–4 domains (35–285), His-tagged CD55 immobilized on NTA chip, CD97(E86A) titrated at 0.2, 0.5, 1, 2, 5, 10, 20, 30 µM
row,koff,Variant
1,1.41 10^-3 s-1,chain 1 E66A

# Same assay, conditions: with CD55 SCR1–4 domains (35–285), His-tagged CD55 immobilized on NTA chip, CD97(E86A) titrated at 0.2, 0.5, 1, 2, 5, 10, 20, 30 µM, parent: 546
row,kon [M⁻¹ s⁻¹],Variant
1,80.1,chain 1 E66A

# Same assay, conditions: with CD55 SCR1–4 domains (35–285), His-tagged CD55 immobilized on NTA chip, CD97(V137A) titrated at 0.2, 0.5, 1, 2, 5, 10, 20 µM
row,koff,Variant
1,1.63 10^-3 s-1,chain 1 V117A

# Same assay, conditions: with CD55 SCR1–4 domains (35–285), His-tagged CD55 immobilized on NTA chip, CD97(V137A) titrated at 0.2, 0.5, 1, 2, 5, 10, 20 µM, parent: 546
row,kon [M⁻¹ s⁻¹],Variant
1,64,chain 1 V117A

# Same assay, conditions: with CD55 SCR1–4 domains (35–285), His-tagged CD55 immobilized on NTA chip, CD97(D81A) titrated at 0.2, 0.5, 1, 2, 5, 10, 20 µM
row,koff,Variant
1,1.22 10^-3 s-1,chain 1 D61A

# Same assay, conditions: with CD55 SCR1–4 domains (35–285), His-tagged CD55 immobilized on NTA chip, CD97(D81A) titrated at 0.2, 0.5, 1, 2, 5, 10, 20 µM, parent: 546
row,kon [M⁻¹ s⁻¹],Variant
1,20.2,chain 1 D61A
